In patent CN109081868A (INST PASTEUR SHANGHAI CAS, dated 2018) one finds Kd data, which are given here for one molecule.

This test has as its target T1, ZIKV E80 (寨卡病毒包膜蛋白N端80%区域, 氨基酸1-409) (Zika virus (2015 South American …, UniProt A0A024B7W1 291-699)).
T1 construct: also called ZKE80
The experiment in a line: BLI (Octet-Red), biotinylated ZIKV E80 on streptavidin sensor, antibody at 40-0.064 ug/ml in solution.

T1 sequence (A0A024B7W1 291-699): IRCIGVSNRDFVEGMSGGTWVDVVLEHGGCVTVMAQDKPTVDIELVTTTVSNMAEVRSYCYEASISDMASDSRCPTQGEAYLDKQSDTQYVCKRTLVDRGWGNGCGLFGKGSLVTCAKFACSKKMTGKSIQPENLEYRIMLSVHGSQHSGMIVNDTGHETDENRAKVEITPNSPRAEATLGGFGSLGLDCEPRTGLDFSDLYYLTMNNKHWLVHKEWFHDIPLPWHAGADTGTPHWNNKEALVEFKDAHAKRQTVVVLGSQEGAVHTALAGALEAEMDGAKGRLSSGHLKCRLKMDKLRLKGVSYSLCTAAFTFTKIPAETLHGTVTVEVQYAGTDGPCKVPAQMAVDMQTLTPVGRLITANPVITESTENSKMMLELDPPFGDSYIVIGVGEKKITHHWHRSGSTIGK

B1: 单克隆抗体5F8 (antibody, V domains shown)
VH: QVQLQQSGAELVRPGVSAKISCKASGYIFTDYAMHWVKQSHAKSLEWIGLISTKSGAANYNQKFTDKATLTVDKSSSTAYLELARLTSEDSAIYYCARNDYLAWLPYWGQGTLVTVSA
VL: DVLMTQTPLSLPVSLGDHASISCRSSQSIVHSNGNTYLEWYLQKPGQSPKLLIYKVSYRFSGVPDRFSGSGSGTDFTLKISRVEAEDLGVYYCFQGSHVPWTFGGGTKLEIK
notes: also called 单抗5F8; 重组5F8
Molecule B1 showed a Kd of 15 nM.
